“And” between values parts separate entries of the source, which are not always exact repeats. Identical values can stand only once. Square brackets hold non-standard residues; d marks the D form. Ends that are not written are not given here. Peptide text beside a SMILES is read from it. Phe(4-CN) = N#Cc1ccc(C[C@H](N)C(=O)O)cc1; Phe(3-Me) = Cc1cccc(C[C@H](N)C(=O)O)c1
Assays:
GST-MAGE-A11 MHD = molecular target: T1, GST-MAGE-A11 MHD (Homo sapiens, UniProt P43364); assay: TR-FRET competition assay of PCF11 peptides against GST-MAGE-A11 MHD / FAM-PCF11_4; details: Fig. 1c, panel of eight PCF11 peptides; read-out: IC50, binding of PCF11 peptide to GST-MAGE-A11 by TR-FRET
T1 construct: GST-MAGE-A11 MHD (human MAGE-A11 MHD amino acid 218-429); made in house; host or cells: E. coli BL21(DE3)
T1 sequence (P43364 218-429): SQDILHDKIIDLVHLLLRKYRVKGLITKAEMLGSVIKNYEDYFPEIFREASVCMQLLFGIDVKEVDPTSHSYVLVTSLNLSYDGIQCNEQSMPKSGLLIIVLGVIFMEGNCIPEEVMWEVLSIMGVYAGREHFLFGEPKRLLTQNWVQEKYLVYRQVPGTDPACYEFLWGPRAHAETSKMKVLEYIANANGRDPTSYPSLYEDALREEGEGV
Procedure: The TR-FRET assay buffer with a formula of 50 mM Tris pH 7.5, 20 mM MgCl2, 0.1 mg/ml BSA and 1 mM DTT was freshly prepared before each experiment. All TR-FRET assays were performed in black 384-well plates with 20 µl/well assay volume in the TR-FRET assay buffer at room temperature (~25 °C). All peptides or compounds were solubilized in DMSO. To test the competitive activity of peptides or compounds against the interaction between GST-MAGE-A11 MHD and FAM-PCF11_4 peptide, 10 µl/well peptide or compound at specified concentration was dispensed into a black 384-well low volume plate, followed by 5 µl/well FAM-PCF11_4 (800 nM), 5 µl/well Tb-anti-GST (20 nM), and GST-MAGE-A11 MHD (20 nM). The assay components in each well was then mixed by shaking the plate on an IKA MTS 2/4 digital microtiter plate shaker (IKA Works; Wilmington, NC, USA) for 1 min. The plate was further centrifuged in an Eppendorf 5810 centrifuge with an A-4-62 swing-bucket rotor (Eppendorf AG, Hamburg, Germany) at 201 g for 30 s. The plate was then incubated for 90 min with a lid to avoid light exposure to the assay components. After incubation, the fluorescent emission signals at 520 nm and 490 nm channels of individual wells were measured with a PHERAstar FS plate reader (BMG Labtech; Durham, NC, USA) by using a 340 nm excitation filter, 100 µs delay time, and 200 µs integration time. The TR-FRET fluorescence emission ratio (TR-FRET signal) for each well was presented as 10,000 × 520 nm/490 nm, which was used directly for curve fitting, or further converted to %Inhibition based on the respective positive and negative controls. The graphic software GraphPad Prism 4.81 (GraphPad Software; La Jolla, CA, USA) was used to generate curves and derive IC50 values of tested peptides or compounds, if applicable.
TR-FRET inhibitory activity characterization of a panel of PCF11 peptides against the interaction between GST-MAGE-A11 MHD and FAM-PCF11_4 was performed as follows. In a 20-µl/well assay volume, dilutions of PCF11_1 to PCF11_8 peptides (concentrations ranged from 3.1 nM to 100 µM for peptides PCF11_4, PCF11_5, PCF11_6 and PCF11_8 in a 1-to-2 dilution pattern for 16 concentration levels, and ranged from 48.9 nM to 100 µM for peptides of PCF11_1, PCF11_2, PCF11_3, and PCF11_7 in a 1-to-2 dilution pattern for 12 concentration levels), 200 nM FAM-PCF11_4, 5 nM Tb-anti-GST and 5 nM GST-MAGE-A11 were mixed together and incubated for 90 min before the TR-FRET signal for each well was measured. The final DMSO concentration was 1.1% (v/v). […] The signal of each peptide-treated well (Signalpeptide) was normalized to the positive and negative controls to derive %inhibition of the peptide at a specific concentration with Eq. (1). Where applicable, the %Inhibition data were fit into a Sigmoidal dose response equation to derive IC50 values.1 %Inhibition=100%−100%×(Signalpeptide−SignalDMSOwithoutGST-MAGEA11)/SignalDMSO−SignalDMSOwithoutGST-MAGEA11.

[1] = molecular target: T2, GST-MAGE-A11 MHD (human MAGE-A11 MHD amino acid 218-429) (human, UniProt P43364 218-429); assay: FRET
T2 chain: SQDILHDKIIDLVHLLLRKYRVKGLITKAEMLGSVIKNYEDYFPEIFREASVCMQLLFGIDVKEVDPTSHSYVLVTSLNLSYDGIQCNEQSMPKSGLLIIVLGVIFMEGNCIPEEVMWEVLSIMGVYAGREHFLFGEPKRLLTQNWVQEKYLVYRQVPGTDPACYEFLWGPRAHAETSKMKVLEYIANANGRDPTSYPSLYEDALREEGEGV

[2] = molecular target: T3, GST-MAGE-A11 MHD (human MAGE-A11 MHD amino acid 218-429) (human, UniProt P43364 218-429); assay: AlphaScreen or HTRF; TR-FRET competition: unlabelled peptide titrated against 200 nM FAM-PCF11_4, 5 nM Tb-anti-GST and 5 nM GST-MAGE-A11 MHD; 50 mM Tris pH 7.5, 20 mM MgCl2, 0.1 mg/ml BSA, 1 mM DTT; room temperature (~25 °C), 90 min; details: both partners purified
T3 construct: also called recombinant GST-MAGE-A11; source: E. coli BL21(DE3), purified (GSTrap, Resource Q)
T3 sequence (looked up): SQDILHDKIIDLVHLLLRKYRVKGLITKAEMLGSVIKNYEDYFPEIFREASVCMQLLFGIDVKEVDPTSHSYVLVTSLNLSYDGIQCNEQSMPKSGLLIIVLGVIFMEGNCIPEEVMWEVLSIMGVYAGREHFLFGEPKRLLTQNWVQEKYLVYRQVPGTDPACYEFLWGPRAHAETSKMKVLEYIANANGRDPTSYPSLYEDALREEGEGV

[3] = molecular target: T2, GST-MAGE-A11 MHD (human MAGE-A11 MHD …); assay: FRET
[4] = molecular target: T4, MAGE-A11 MHD (218-429), as part of the crystallised fusion (human, UniProt P43364 218-429); assay: crystal structure; PCF11 677-701 fused by GGSGRP to the N-terminus of MAGE-A11 MHD 218-429; sitting drop, 20 °C, 0.2 M Na acetate, 0.1 M Bis Tris propane pH 7.5, 20% PEG 3350; four protomers in the P 1 cell; details: both partners purified
T4 construct: In the crystal it follows PCF11 677-701 and the linker GGSGRP (whole chain: m25); also called MAGE-A11 MHD (S218 to C-terminus); source: E. coli BL21(DE3), purified, on one chain with the PCF11 degron
T4 sequence (looked up): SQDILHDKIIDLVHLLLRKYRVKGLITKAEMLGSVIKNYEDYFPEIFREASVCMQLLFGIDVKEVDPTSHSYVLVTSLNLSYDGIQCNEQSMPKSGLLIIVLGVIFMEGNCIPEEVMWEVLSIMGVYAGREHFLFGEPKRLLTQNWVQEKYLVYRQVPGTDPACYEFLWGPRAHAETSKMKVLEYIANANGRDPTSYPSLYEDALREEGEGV

`CC[C@H](C)[C@H](NC(=O)[C@H](CCC(N)=O)NC(=O)[C@H](Cc1c[nH]cn1)NC(=O)[C@@H](N)C(C)C)C(=O)N[C@@H](CCCNC(=N)N)C(=O)N[C@@H](CCC(N)=O)C(=O)N[C@@H](CC(C)C)C(=O)N[C@@H](Cc1ccccc1)C(=O)N[C@@H](CCC(N)=O)C(=O)N[C@@H](Cc1ccc(O)cc1)C(=O)N[C@@H](CCC(N)=O)C(=O)N[C@@H](CCC(=O)O)C(=O)NCC(=O)N[C@H](C(=O)N[C@@H](CCCNC(=N)N)C(=O)O)C(C)C` [PCF11_7] (H-VHQIRQLFQYQEGVR-OH; N-terminus assumed) was tested. Which IC50 (GST-MAGE-A11 MHD) did it give?
Its IC50 is over 50000 nM.

Which IC50 (GST-MAGE-A11 MHD) does the source give for `CC[C@H](C)[C@H](NC(=O)[C@H](CCC(N)=O)NC(=O)[C@H](Cc1c[nH]cn1)NC(=O)[C@@H](N)C(C)C)C(=O)N[C@@H](CCCNC(=N)N)C(=O)N[C@@H](CCC(N)=O)C(=O)N[C@@H](CC(C)C)C(=O)N[C@@H](Cc1ccccc1)C(=O)N[C@@H](CCC(N)=O)C(=O)N[C@@H](Cc1ccc(O)cc1)C(=O)N[C@@H](CCC(N)=O)C(=O)N[C@@H](CCC(=O)O)C(=O)NCC(=O)N[C@H](C(=O)N[C@@H](CCCNC(=N)N)C(=O)N[C@@H](CCC(=O)O)C(=O)N[C@@H](CCC(=O)O)C(=O)N[C@@H](CCC(N)=O)C(=O)N[C@@H](CCCNC(=N)N)C(=O)N[C@@H](CO)C(=O)O)C(C)C` [PCF11_8] (H-VHQIRQLFQYQEGVREEQRS-OH; N-terminus assumed) here?
The IC50 was over 50000 nM.

B1: PCF11_6 peptide (peptide)
chain: FLVVVHQIRQLFQYQ
modifications: exact ends are only in Fig. 1b; 682-696 is inferred from 'three overlapping peptides centered on PCF11 amino acids 682-696' (the later 13-residue model peptide is 682-694)
For B1, which IC50 [1] is on record?
Its IC50 is 70 nM and 65 nM.

B2: PCF11 peptide (FLVVVHQIRQLF*Q) containing 3-methyl-phenylalanine at position 12 (peptide)
peptide: FLVVVHQIRQL[Phe(3-Me)]Q
notes: PCF11 degron, human; the phenylalanine at position 12 (F693) is 3-methyl-phenylalanine; also called 3-methyl-phenylalanine variant; source: synthetic peptide
With B2 as the molecule, how does the IC50 [2] read?
Its IC50 is 1.7 nM.

For FLVVVHQARQLFQYQ [PCF11_6 peptide I689A], which IC50 [1] is on record?
Its IC50 is 1020 nM.

B3: PCF11 peptide (FLVVVHQIRQLF*Q) containing 4-cyano-phenylalanine at position 12 (peptide)
peptide: FLVVVHQIRQL[Phe(4-CN)]Q
notes: PCF11 degron, human; the phenylalanine at position 12 (F693) is 4-cyano-phenylalanine; also called 4-cyano-phenylalanine variant; source: synthetic peptide
How did the IC50 [2] turn out when B3 was run?
The IC50 was 663 nM.

Which IC50 [1] does the source give for FLVVVHQIRQAFQYQ [PCF11_6 peptide L692A] here?
The IC50 was 540 nM.

FLVVVHQIAQLFQYQ [PCF11_6 peptide R690A] was tested. Which IC50 [1] did it give?
The IC50 was 15600 nM.

For FLVVVHQIRQLAQYQ [PCF11_6 peptide F693A], which IC50 [1] is on record?
The IC50 was 2140 nM.

B4: PCF11 peptide (FLVVVHQIRQLFQ) containing phenylalanine at position 12 (peptide)
peptide: FLVVVHQIRQLFQ
notes: PCF11 degron, human; position +1 is F682 and position +12 is F693; also called model 13 amino acid PCF11 peptide degron; natural PCF11 degron peptide; source: synthetic peptide
Which results are given for B4?
binding result [2]: binds; IC50 [3]: 60.4 nM

With ALVVVHQIRQLFQYQ (same inferred limits as m7) [PCF11_6 peptide F682A] as the molecule, how does the IC50 [1] read?
Its IC50 is 570 nM.

B5: PCF11 degron peptide (human PCF11 amino acid 677-701), as part of the crystallised fusion (peptide, UniProt O94913 677-701, looked up)
chain: ITQDDFLVVVHQIRQLFQYQEGVRE
notes: PCF11, human, amino acids 677-701; In the crystal it is joined by the linker GGSGRP to the N-terminus of m27 (whole chain: m25); also called PCF11 peptide; source: E. coli BL21(DE3), purified, on one chain with MAGE-A11 MHD
Does B5 bind [4]?
Result: binds
